According to patent US20160347808A1 (IMMATICS BIOTECHNOLOGIES, published 2016):

These binders were tested against T1, HLA-A*02:01 (peptide-receptive MHC class I monomer from UV-ligand exchange) (human) (assay: UV-exchange ELISA (anti-b2m); exchange yield grade: + >=10%, ++ >=20%, +++ >=50%, ++++ >=75%).
T1 construct: Monomers were captured on streptavidin-coated plates
From the text: Candidate peptides for T cell based therapies according to the present invention were further tested for their MHC binding capacity (affinity). The individual peptide-MHC complexes were produced by UV-ligand exchange, where a UV-sensitive peptide is cleaved upon UV-irradiation, and exchanged with the peptide of interest as analyzed. Only peptide candidates that can effectively bind and stabilize the peptide-receptive MHC molecules prevent dissociation of the MHC complexes. To determine the yield of the exchange reaction, an ELISA was performed based on the detection of the light chain (β2m) of stabilized MHC complexes. The assay was performed as generally described in Rodenko et al. (Rodenko et al., 2006).
96 well MAXISorp plates (NUNC) were coated over night with 2 ug/ml streptavidin in PBS at room temperature, washed 4× and blocked for 1 h at 37° C. in 2% BSA containing blocking buffer. Refolded HLA-A*02:01/MLA-001 monomers served as standards, covering the range of 15-500 ng/ml. Peptide-MHC monomers of the UV-exchange reaction were diluted 100 fold in blocking buffer. Samples were incubated for 1 h at 37° C., washed four times, incubated with 2 ug/ml HRP conjugated anti-β2m for 1 h at 37° C., washed again and detected with TMB solution that is stopped with […]. Absorption was measured at 450 nm. Candidate peptides that show a high exchange yield (preferably higher than 50%, most preferred higher than 75%) are generally preferred for a generation and production of antibodies or fragments thereof, and/or T cell receptors or fragments thereof, as they show sufficient avidity to the MHC molecules and prevent dissociation of the MHC complexes.
In the case of GLLKPGLNVVL [peptide GLLKPGLNVVL (SEQ ID NO 90)], the peptide exchange yield is reported as 50 to 75%.
With YLAPENGYL [peptide YLAPENGYL (SEQ ID NO 62)] the peptide exchange yield was 20 to 50%.
Work on KLFSILSTV [peptide KLFSILSTV (SEQ ID NO 63)] yielded a peptide exchange yield of 20 to 50%.
ALDPELLLL [peptide ALDPELLLL (SEQ ID NO 78)] gave a peptide exchange yield of 20 to 50%.
LTIEDGIFEV [peptide LTIEDGIFEV (SEQ ID NO 83)] was tested, and the peptide exchange yield was 50 to 75%.
Binder YLTRHLAVL [peptide YLTRHLAVL (SEQ ID NO 7)] has a peptide exchange yield of 20 to 50%.
Work on AMADKMDMSL [peptide AMADKMDMSL (SEQ ID NO 58)] yielded a peptide exchange yield of 20 to 50%.
In the case of ALLNGEYLLAA [peptide ALLNGEYLLAA (SEQ ID NO 54)], the peptide exchange yield is reported as 50 to 75%.
In the case of AMNGKSFSV [peptide AMNGKSFSV (SEQ ID NO 98)], the peptide exchange yield is reported as 20 to 50%.
With SMVEDITGLRL [peptide SMVEDITGLRL (SEQ ID NO 84)] the peptide exchange yield was 50 to 75%.
With SLDDFLATA [peptide SLDDFLATA (SEQ ID NO 100)] the peptide exchange yield was 50 to 75%.
In the case of ALLSQQTHL [peptide ALLSQQTHL (SEQ ID NO 81)], the peptide exchange yield is reported as 50 to 75%.
For AILDAHIEV [peptide AILDAHIEV (SEQ ID NO 95)], the peptide exchange yield was ≥ 75%.
In the case of KTLGKLWRL [peptide KTLGKLWRL (SEQ ID NO 64)], the peptide exchange yield is reported as 20 to 50%.
Work on FLLGSEIKL [peptide FLLGSEIKL (SEQ ID NO 53)] yielded a peptide exchange yield of 50 to 75%.
TVDVATPSV [peptide TVDVATPSV (SEQ ID NO 91)] showed a peptide exchange yield of 50 to 75%.
MISELEVRL [peptide MISELEVRL (SEQ ID NO 70)] showed a peptide exchange yield of 50 to 75%.
Binder SLLKRDFGA [peptide SLLKRDFGA (SEQ ID NO 77)] has a peptide exchange yield of 20 to 50%.
In the case of LLTDNVVKL [peptide LLTDNVVKL (SEQ ID NO 59)], the peptide exchange yield is reported as 50 to 75%.
YLMGFLHAV [peptide YLMGFLHAV (SEQ ID NO 74)] was tested, and the peptide exchange yield was 50 to 75%.
Binder GLSEGHTFQV [peptide GLSEGHTFQV (SEQ ID NO 101)] has a peptide exchange yield of 50 to 75%.
VLDEDEPRFL [peptide VLDEDEPRFL (SEQ ID NO 60)] gave a peptide exchange yield of 20 to 50%.
For VLFTDEGVPKFL [peptide VLFTDEGVPKFL (SEQ ID NO 56)], the peptide exchange yield was 20 to 50%.
For KLDIKVETV [peptide KLDIKVETV (SEQ ID NO 88)], the peptide exchange yield was ≥ 75%.
Binder FLFGYPKRL [peptide FLFGYPKRL (SEQ ID NO 103)] has a peptide exchange yield of 20 to 50%.
For SLAADQLLKL [peptide SLAADQLLKL (SEQ ID NO 79)], the peptide exchange yield was 20 to 50%.
In the case of SLIEYEFRV [peptide SLIEYEFRV (SEQ ID NO 89)], the peptide exchange yield is reported as 50 to 75%.
Binder ALMLQGVDLL [peptide ALMLQGVDLL (SEQ ID NO 8)] has a peptide exchange yield of 50 to 75%.
WIDDTSAFV [peptide WIDDTSAFV (SEQ ID NO 92)] was tested, and the peptide exchange yield was 50 to 75%.
ILDDHLSRV [peptide ILDDHLSRV (SEQ ID NO 9)] gave a peptide exchange yield of 20 to 50%.
KVFPGKISV [peptide KVFPGKISV (SEQ ID NO 86)] gave a peptide exchange yield of 20 to 50%.
With ILHDINSDGVL [peptide ILHDINSDGVL (SEQ ID NO 85)] the peptide exchange yield was 20 to 50%.
KLYSRLVYV [peptide KLYSRLVYV (SEQ ID NO 96)] showed a peptide exchange yield of 20 to 50%.
LLFDAPDLRL [peptide LLFDAPDLRL (SEQ ID NO 87)] gave a peptide exchange yield of 50 to 75%.
In the case of KLLEVDLDTV [peptide KLLEVDLDTV (SEQ ID NO 99)], the peptide exchange yield is reported as 50 to 75%.
With KILVSLIEV [peptide KILVSLIEV (SEQ ID NO 102)] the peptide exchange yield was 50 to 75%.
In the case of QVDEVVDIMRV [peptide QVDEVVDIMRV (SEQ ID NO 80)], the peptide exchange yield is reported as 20 to 50%.
EMIENIQSV [peptide EMIENIQSV (SEQ ID NO 75)] showed a peptide exchange yield of 20 to 50%.
Work on GMLNEAEGKAIKL [peptide GMLNEAEGKAIKL (SEQ ID NO 69)] yielded a peptide exchange yield of 20 to 50%.
For GLDDGPDFL [peptide GLDDGPDFL (SEQ ID NO 66)], the peptide exchange yield was 20 to 50%.
Binder NLLEKENYL [peptide NLLEKENYL (SEQ ID NO 57)] has a peptide exchange yield of 50 to 75%.
With FLAELPGSLSL [peptide FLAELPGSLSL (SEQ ID NO 6)] the peptide exchange yield was 50 to 75%.
For YLFDIAVSM [peptide YLFDIAVSM (SEQ ID NO 73)], the peptide exchange yield was 50 to 75%.
SLNDLEKDVMLL [peptide SLNDLEKDVMLL (SEQ ID NO 67)] gave a peptide exchange yield of 50 to 75%.
In the case of YLLDYPNNLL [peptide YLLDYPNNLL (SEQ ID NO 72)], the peptide exchange yield is reported as 50 to 75%.
RLWTEIPTAI [peptide RLWTEIPTAI (SEQ ID NO 71)] was tested, and the peptide exchange yield was 50 to 75%.
Binder KSMDIVLTV [peptide KSMDIVLTV (SEQ ID NO 94)] has a peptide exchange yield of 50 to 75%.
Binder QLYEEPDTKL [peptide QLYEEPDTKL (SEQ ID NO 82)] has a peptide exchange yield of 20 to 50%.
In the case of YLIGEKQHYL [peptide YLIGEKQHYL (SEQ ID NO 76)], the peptide exchange yield is reported as 50 to 75%.
SLQELRLLL [peptide SLQELRLLL (SEQ ID NO 93)] was tested, and the peptide exchange yield was ≥ 75%.
With SILQFVHMV [peptide SILQFVHMV (SEQ ID NO 68)] the peptide exchange yield was 50 to 75%.
ALWWGVVTV [peptide ALWWGVVTV (SEQ ID NO 97)] was tested, and the peptide exchange yield was 20 to 50%.
In the case of KLLKLFQGV [peptide KLLKLFQGV (SEQ ID NO 61)], the peptide exchange yield is reported as 50 to 75%.
